For this test, the target named is T1, human DNA polymerase α catalytic subunit p180 with the N-terminus (residues 1–334) deleted (human, UniProt P09884 335-1462).
T1 sequence (looked up): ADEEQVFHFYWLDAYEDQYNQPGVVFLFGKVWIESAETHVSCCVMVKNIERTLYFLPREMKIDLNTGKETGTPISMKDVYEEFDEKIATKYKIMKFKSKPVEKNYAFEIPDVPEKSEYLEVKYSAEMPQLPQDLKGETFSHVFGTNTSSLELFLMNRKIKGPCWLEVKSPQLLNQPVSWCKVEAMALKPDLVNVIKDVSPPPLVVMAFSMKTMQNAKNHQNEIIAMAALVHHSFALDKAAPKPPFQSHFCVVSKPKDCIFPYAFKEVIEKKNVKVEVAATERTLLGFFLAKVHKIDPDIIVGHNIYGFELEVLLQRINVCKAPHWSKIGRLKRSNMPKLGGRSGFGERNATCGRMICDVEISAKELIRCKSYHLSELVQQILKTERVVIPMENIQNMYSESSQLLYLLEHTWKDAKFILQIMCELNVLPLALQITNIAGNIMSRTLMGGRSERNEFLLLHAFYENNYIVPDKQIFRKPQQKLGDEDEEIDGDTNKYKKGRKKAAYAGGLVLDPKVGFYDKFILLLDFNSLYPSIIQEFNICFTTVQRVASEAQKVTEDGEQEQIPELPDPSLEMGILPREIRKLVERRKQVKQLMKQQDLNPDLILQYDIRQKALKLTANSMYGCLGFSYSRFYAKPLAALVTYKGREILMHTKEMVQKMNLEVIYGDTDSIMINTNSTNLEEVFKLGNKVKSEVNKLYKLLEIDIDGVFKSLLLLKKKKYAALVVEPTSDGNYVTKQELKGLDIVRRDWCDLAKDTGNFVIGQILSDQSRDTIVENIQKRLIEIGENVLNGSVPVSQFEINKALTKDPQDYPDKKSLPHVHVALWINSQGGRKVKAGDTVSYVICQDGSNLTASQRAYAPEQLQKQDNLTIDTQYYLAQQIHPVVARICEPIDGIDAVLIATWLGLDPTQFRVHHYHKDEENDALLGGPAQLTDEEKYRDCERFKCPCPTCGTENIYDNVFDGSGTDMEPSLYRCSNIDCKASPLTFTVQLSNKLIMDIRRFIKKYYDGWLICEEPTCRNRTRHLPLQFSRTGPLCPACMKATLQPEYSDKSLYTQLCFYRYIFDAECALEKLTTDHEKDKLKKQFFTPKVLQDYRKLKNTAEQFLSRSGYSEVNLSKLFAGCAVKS
Kind of test: cryo-EM structure.

B1: human DNA polymerase α accessory subunit p70 (natural protein, UniProt Q14181 1-598, looked up)
chain: MSASAQQLAEELQIFGLDCEEALIEKLVELCVQYGQNEEGMVGELIAFCTSTHKVGLTSEILNSFEHEFLSKRLSKARHSTCKDSGHAGARDIVSIQELIEVEEEEEILLNSYTTPSKGSQKRAISTPETPLTKRSVSTRSPHQLLSPSSFSPSATPSQKYNSRSNRGEVVTSFGLAQGVSWSGRGGAGNISLKVLGCPEALTGSYKSMFQKLPDIREVLTCKIEELGSELKEHYKIEAFTPLLAPAQEPVTLLGQIGCDSNGKLNNKSVILEGDREHSSGAQIPVDLSELKEYSLFPGQVVIMEGINTTGRKLVATKLYEGVPLPFYQPTEEDADFEQSMVLVACGPYTTSDSITYDPLLDLIAVINHDRPDVCILFGPFLDAKHEQVENCLLTSPFEDIFKQCLRTIIEGTRSSGSHLVFVPSLRDVHHEPVYPQPPFSYSDLSREDKKQVQFVSEPCSLSINGVIFGLTSTDLLFHLGAEEISSSSGTSDRFSRILKHILTQRSYYPLYPPQEDMAIDYESFYVYAQLPVTPDVLIIPSELRYFVKDVLGCVCVNPGRLTKGQVGGTFARLYLRRPAADGAERQSPCIAVQVVRI
With B1, the binding result is recorded as “binds”.

(Values after article PMC10268227 (Nature structural & molecular biology, 2023).)
